Assay results from patent US20240402174A1 (Takeda / Millennium, published 2024).

What was measured:
Assay in all cases: multiplex microsphere immunoassay
GI.1 VLP = biological target: T1, GI.1 VLP (norovirus Hu/GI.1/Norwalk/1968/US, UniProt Q83884 1-530)
T1 construct: also called GI.1 Norwalk; GI.I/Norwalk VLP
T1 sequence: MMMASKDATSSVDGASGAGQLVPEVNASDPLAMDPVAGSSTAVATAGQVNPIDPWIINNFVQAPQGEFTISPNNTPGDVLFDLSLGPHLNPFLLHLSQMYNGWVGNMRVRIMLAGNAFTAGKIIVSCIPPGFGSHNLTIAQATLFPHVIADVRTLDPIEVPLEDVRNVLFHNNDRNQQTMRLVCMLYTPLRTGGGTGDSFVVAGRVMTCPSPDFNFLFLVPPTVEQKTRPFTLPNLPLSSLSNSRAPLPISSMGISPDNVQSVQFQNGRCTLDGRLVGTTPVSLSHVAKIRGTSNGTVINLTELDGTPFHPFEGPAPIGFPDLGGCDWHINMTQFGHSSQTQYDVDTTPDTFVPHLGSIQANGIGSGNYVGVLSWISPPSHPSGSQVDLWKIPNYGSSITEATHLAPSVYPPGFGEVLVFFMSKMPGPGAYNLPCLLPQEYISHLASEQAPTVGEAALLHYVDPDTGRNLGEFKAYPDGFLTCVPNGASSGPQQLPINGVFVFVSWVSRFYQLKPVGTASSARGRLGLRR

GI.2 VLP = biological target: T2, GI.2 VLP (norovirus Hu/GI.2/Jingzhou/2013401/CHN, UniProt Q04542 1-546)
T2 construct: also called GI.2 Jingzhou
T2 chain: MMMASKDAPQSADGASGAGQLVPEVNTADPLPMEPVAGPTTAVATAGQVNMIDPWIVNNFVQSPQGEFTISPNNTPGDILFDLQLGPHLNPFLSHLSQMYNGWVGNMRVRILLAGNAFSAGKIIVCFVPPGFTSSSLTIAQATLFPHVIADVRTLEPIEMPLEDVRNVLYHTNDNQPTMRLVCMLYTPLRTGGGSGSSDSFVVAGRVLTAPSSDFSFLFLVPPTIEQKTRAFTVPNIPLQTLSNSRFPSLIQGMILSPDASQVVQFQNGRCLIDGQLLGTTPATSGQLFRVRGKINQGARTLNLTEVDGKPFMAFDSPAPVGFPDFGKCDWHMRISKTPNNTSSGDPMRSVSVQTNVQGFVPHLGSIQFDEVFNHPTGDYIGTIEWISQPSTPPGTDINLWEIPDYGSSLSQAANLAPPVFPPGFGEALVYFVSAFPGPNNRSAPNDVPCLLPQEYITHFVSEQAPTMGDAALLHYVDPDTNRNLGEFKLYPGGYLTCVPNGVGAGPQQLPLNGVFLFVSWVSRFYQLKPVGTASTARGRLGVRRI

GI.5 VLP = biological target: T3, GI.5 VLP (norovirus …)
T3 construct: also called GI.5 Siklos
T3 chain: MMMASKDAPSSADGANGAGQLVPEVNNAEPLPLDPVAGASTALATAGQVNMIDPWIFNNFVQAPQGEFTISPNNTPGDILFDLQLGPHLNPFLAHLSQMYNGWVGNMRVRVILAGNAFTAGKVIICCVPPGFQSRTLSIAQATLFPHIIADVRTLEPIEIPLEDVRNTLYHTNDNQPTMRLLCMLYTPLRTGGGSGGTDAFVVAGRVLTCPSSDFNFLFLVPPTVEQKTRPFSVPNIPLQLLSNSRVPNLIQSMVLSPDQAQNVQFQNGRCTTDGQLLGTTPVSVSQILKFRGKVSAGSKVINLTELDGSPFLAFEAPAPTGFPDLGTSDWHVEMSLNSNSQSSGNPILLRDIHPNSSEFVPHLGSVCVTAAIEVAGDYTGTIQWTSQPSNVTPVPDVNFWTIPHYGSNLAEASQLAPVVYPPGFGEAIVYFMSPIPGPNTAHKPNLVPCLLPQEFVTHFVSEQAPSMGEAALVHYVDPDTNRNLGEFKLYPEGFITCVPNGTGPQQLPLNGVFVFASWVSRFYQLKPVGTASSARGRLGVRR

GI.6 VLP = biological target: T4, GI.6 VLP (norovirus Hu/GI.6/TCH-099/USA/2003)
T4 construct: also called GI.6 USA
T4 chain: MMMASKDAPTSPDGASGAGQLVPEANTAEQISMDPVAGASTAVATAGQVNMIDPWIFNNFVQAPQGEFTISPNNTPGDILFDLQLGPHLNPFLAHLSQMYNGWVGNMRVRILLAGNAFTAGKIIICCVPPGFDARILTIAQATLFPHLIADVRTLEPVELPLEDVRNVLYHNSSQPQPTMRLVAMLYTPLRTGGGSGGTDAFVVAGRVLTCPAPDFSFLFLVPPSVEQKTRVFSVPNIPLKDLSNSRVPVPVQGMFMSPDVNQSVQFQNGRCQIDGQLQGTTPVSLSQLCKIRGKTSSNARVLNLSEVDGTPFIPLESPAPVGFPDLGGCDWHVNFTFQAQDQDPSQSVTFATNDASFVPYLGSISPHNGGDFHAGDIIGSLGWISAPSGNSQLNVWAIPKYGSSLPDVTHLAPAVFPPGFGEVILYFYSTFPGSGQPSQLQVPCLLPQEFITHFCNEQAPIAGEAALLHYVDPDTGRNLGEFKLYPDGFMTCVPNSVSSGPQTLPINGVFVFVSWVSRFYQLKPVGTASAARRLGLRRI

GI.7 VLP = biological target: T5, GI.7 VLP (norovirus Hu/GI.7/Providence191/2010/USA)
T5 construct: also called GI.7 Providence
T5 chain: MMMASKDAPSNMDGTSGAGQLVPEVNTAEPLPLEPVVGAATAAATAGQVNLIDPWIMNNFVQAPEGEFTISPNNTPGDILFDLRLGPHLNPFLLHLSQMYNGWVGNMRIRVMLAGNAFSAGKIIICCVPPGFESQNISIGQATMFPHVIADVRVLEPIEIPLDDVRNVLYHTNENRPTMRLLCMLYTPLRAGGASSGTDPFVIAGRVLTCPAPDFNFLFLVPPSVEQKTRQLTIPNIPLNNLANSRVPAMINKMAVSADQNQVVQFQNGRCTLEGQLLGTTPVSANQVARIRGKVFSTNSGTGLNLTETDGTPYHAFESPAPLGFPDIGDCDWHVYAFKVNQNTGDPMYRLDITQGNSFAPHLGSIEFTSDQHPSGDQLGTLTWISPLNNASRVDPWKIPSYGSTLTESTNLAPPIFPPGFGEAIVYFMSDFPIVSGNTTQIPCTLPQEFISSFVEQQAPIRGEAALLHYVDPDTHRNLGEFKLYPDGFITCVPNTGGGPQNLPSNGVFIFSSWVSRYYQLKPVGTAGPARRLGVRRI

Measured: binding result

B1: human mAb 1431 (antibody, V domains shown)
VH: QVQLVQSGGGLVQPGGSLRLSCAASGFAFSNHGMHWVRQAPGKGLEWLSYISGSTGAIHYANSVKGRFTISRDNARNSLDLQMNSLGDEDTAVYYCARDGPRPDGTGYAGPSNDYWGQGTLVSVSS
VL: EIVLTQSPASLSLSPGERATLSCKASRSISIYLAWYQQKPGQAPRLLIYDASYRAIGIPARFSGSGSGTDFTLTISNLEPEDFAVYYCQHRSSWPALTFGGGTKVEI
notes: also called A1431
no binding: all assays above
